Reference: US20040235157A1

Biological target: Type I interferon receptor (endogenous, on human promonocytic PIL5 cells derived from U937) (human) (UniProt P17181)
Experiment: cell-based or functional assay

Sequence of UniProt P17181 (P17181 28-557, chain 1 of 2): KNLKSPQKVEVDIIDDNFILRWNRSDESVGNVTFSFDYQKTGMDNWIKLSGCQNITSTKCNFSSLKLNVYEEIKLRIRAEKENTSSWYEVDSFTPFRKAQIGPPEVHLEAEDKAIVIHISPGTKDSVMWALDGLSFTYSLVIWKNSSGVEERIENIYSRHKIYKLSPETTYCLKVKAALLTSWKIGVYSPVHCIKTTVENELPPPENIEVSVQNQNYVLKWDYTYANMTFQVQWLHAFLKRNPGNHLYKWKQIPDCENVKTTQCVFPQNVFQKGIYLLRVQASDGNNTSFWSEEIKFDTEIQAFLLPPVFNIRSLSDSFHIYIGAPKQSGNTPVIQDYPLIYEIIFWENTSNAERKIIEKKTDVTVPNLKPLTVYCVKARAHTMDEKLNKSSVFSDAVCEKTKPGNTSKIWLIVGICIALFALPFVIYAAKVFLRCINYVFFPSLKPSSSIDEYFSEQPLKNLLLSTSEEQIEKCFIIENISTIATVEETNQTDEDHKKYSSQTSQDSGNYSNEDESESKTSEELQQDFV
Sequence of UniProt P17181 (P48551 27-515, chain 2 of 2, further chain): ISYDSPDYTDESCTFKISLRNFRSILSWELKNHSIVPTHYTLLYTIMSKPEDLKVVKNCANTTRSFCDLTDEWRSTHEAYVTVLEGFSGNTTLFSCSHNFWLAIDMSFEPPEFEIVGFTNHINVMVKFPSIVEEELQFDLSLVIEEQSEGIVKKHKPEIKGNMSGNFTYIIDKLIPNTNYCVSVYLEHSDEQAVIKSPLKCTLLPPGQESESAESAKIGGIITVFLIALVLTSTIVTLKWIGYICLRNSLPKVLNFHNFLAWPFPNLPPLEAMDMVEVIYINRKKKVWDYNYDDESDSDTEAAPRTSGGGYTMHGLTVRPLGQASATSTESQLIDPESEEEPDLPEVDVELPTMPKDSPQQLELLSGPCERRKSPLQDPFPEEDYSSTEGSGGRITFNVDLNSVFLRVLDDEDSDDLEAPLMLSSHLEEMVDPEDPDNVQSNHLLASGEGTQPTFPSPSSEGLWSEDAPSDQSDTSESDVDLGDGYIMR

| luciferase gene reporter assay using PIL5 cells (lowest detectable IFN activity) [IU/ml] | Substance |
| --- | --- |
| < 1 | IFNβ (from UniProt P01574 22-187) (ligand) |
| < 1 | human IFN α (standard preparation of human interferon alpha) (ligand) |
